Results taken from publication PMC7545189, “Structural characterization of the ICOS/ICOS-L immune complex reveals high molecular mimicry by therapeutic antibodies” (Nature Communications, 2020).

B1: human ICOS ectodomain (residues 21-138), untagged, disulfide-linked homodimer [human] / human ICOS-L ectodomain (residues 19-248), His-tagged, immobilised on Ni-NTA biosensors [human] (parent)
chain 1: EINGSANYEMFIFHNGGVQILCKYPDIVQQFKMQLLKGGQILCDLTKTKGSGNTVSIKSLKFCHSQLSNNSVSFFLYNLDHSHANYYFCNLSIFDPPPFKVTLTGGYLHIYESQLCCQ
chain 2: DTQEKEVRAMVGSDVELSCACPEGSRFDLNDVYVYWQTSESKTVVTYHIPQNSSLENVDSRYRNRALMSPAGMLRGDFSLRLFNVTPQDEQKFHCLVLSQSLGFQEVLSVEVTLHVAANFSVPVVSAPHSPSQDELTFTCTSINGYPRPNVYWINKTDNSLLDQALQNDTVFLNMRGLYDVVSVLRIARTPSVNIGCCIENVLLQQNLTVGSQTGNDIGERDKITENPVS

Variants of: B1
Experiment: BLI
Conditions: with human ICOS-L ectodomain (residues 19-248), parent: 9.8 nM, read off a plot

Row | Kd [nM] | Variant
1 | 2.7 | chain 1 N90Q

Same assay, conditions: with human ICOS-L ectodomain (residues 19-248), parent: 0.0033, read off a plot

Row | koff [s⁻¹] | Variant
2 | 0.0021 | chain 1 N90Q

Same assay, conditions: with human ICOS-L ectodomain (residues 19-248), parent: 3.3e+05, read off a plot

Row | kon [M⁻¹ s⁻¹] | Variant
3 | 730000 | chain 1 N90Q
